# B1: RAD51 (parent)
# chain: APKKELINIKGISEAKADKILAEA
# Variants of: B1
# Experiment: protein stability index of a GFP-peptide fusion (GPS, HEK-293T) (PSI 1-6); higher = more stable
# Details: c terminus: a fixed tail appended
# 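Note: lentivirally expressed fusions sorted by FACS into six bins by GFP to DsRed ratio, PSI derived from sequencing read proportions per bin multiplied by bin number.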
row,Variant,protein stability index
1,L21T,5.25
2,L21R,4.96
3,L21Y,4.58
4,L21G,4.73
5,L21Q,5.18
6,L21P,5.21
7,L21M,4.98
8,L21I,5.32
9,L21S,5.46
10,L21V,4.79
11,L21N,5.02
12,L21H,4.95
13,L21W,4.27
14,L21D,5.58
15,L21E,4.54
16,L21A,4.91
17,L21C,5.15
18,L21F,4.13
19,L21K,5.2
20,D18Q,4.27
21,D18E,3.83
22,D18N,4.04
23,D18A,4.26
24,D18H,4.29

row,Variant,protein stability index
1,D18G,4.16
2,D18S,3.53
3,D18R,4.07
4,D18C,3.36
5,D18L,3.9
6,D18W,2.76
7,D18T,4.04
8,D18I,3.62
9,D18M,3.31
10,D18Y,2.63
11,D18K,4.78
12,D18F,2.59
13,D18P,5.17
14,D18V,4.07
15,S13Y,3.71
16,S13W,4.12
17,K19Q,4.78
18,K19V,4.49
19,K19S,4.89
20,K19L,3.89
21,K19Y,4.61
22,K19F,3.7
23,K19P,4.48
24,K19G,4.93

row,Variant,protein stability index
1,K19C,4.44
2,K19H,4.3
3,K19N,4.84
4,K19T,4.83
5,K19R,4.26
6,K19I,3.38
7,K19A,3.63
8,K19W,3.48
9,K19E,5.12
10,K19M,4.43
11,K19D,4.98
12,A15I,4.77
13,A15C,4.63
14,A15D,4.64
15,A15G,4.81
16,A15T,5.07
17,A15Q,4.58
18,A15F,4.45
19,A15K,4.95
20,A15V,4.95
21,A15W,3.88
22,A15H,4.18
23,A15E,5.25
24,A15S,4.78

row,Variant,protein stability index
1,A15L,4.27
2,A15Y,3.58
3,A15R,4.4
4,A15N,4.36
5,A15M,4.41
6,A15P,4.41
7,K16S,4.61
8,K16E,5.08
9,K16W,1.64
10,K16F,3.67
11,K16P,4.84
12,K16R,4.53
13,K16L,3.28
14,K16N,5.08
15,K16I,3.8
16,K16Q,4.65
17,K16G,5.01
18,K16D,5
19,K16Y,3.93
20,K16C,4.63
21,K16V,3.98
22,K16T,5.22
23,K16M,3.59
24,K16H,4.78

row,Variant,protein stability index
1,K16A,4.47
2,E14R,4.05
3,E14N,4.84
4,E14A,4.4
5,E14F,3.48
6,E14G,4.8
7,E14I,3.68
8,E14P,4.96
9,E14D,4.99
10,E14K,4.4
11,E14L,3.83
12,E14H,4.58
13,E14Q,4.76
14,E14C,3.66
15,E14V,4.81
16,E14S,4.23
17,E14M,4.23
18,E14Y,3.65
19,E14W,3.89
20,E14T,4.43
21,I20N,5.38
22,I20M,5.16
23,I20S,4.95
24,I20K,5.46

row,Variant,protein stability index
1,I20G,5.1
2,I20W,4.26
3,I20A,5.03
4,I20Y,4.61
5,I20R,4.75
6,I20H,5.11
7,I20V,4.97
8,I20D,5.47
9,I20F,4.02
10,I20E,5.33
11,I20C,5.14
12,I20Q,5.69
13,I20T,5.16
14,I20P,5.5
15,I20L,4.86
16,A17S,5
17,A17G,4.84
18,A17T,4.42
19,A17P,4.82
20,A17F,3.73
21,A17W,3.98
22,A17K,4.83
23,A17I,4.15
24,A17N,4.94

row,Variant,protein stability index
1,A17H,4.49
2,A17M,4.43
3,A17V,4.53
4,A17R,4.62
5,A17D,5.51
6,A17L,4.53
7,A17Y,4.08
8,A17E,5.22
9,A17C,5.04
10,A17Q,5.11
11,A22F,3.98
12,A22D,5.38
13,A22C,4.25
14,A22P,4.83
15,A22N,4.59
16,A22Q,5.15
17,A22G,4.62
18,A22I,4.25
19,A22H,4.52
20,A22M,4.75
21,A22L,4.19
22,A22E,5.28
23,A22K,5.24
